From the Immune Epitope Database (IEDB)
Values belong to the sequence of their own block, whether it stands above or below them.

Key:
HLA-B*57:01 = assay: IEDB peptide-MHC binding, purified MHC/direct/fluorescence; filed as Kd, often an IC50 or EC50 that approximates it; ≥ and ≤ were set here for values at or beyond the usual limits of such assays; conditions: source organism: Mycobacterium tuberculosis
HLA-B*08:02 = assay: as above; conditions: source organism: Mycobacterium tuberculosis str. Haarlem
HLA-A*31:01 [1] = assay: as above; conditions: source organism: Mycobacterium tuberculosis
HLA-B*46:01 = assay: as above; conditions: source organism: Mycobacterium tuberculosis
HLA-B*07:02 [2] = assay: as above; conditions: source organism: Mycobacterium tuberculosis
HLA-B*48:01 = assay: as above; conditions: source organism: Mycobacterium tuberculosis
HLA-B*58:01 [3] = assay: as above; conditions: source organism: Mycobacterium tuberculosis
HLA-B*08:03 = assay: as above; conditions: source organism: Mycobacterium tuberculosis str. Haarlem
HLA-B*18:01 [4] = assay: as above; conditions: source organism: Mycobacterium tuberculosis
HLA-A*01:01 [5] = assay: as above; conditions: source organism: Mycobacterium tuberculosis
HLA-A*68:02 [6] = assay: as above; conditions: source organism: Mycobacterium tuberculosis
HLA-B*40:01 = assay: as above; conditions: source organism: Mycobacterium tuberculosis
HLA-B*08:01 [7] = assay: as above; conditions: source organism: Mycobacterium tuberculosis str. Haarlem
HLA-B*15:17 = assay: as above; conditions: source organism: Mycobacterium tuberculosis
HLA-A*26:02 = assay: as above; conditions: source organism: Mycobacterium tuberculosis str. Haarlem
HLA-A*11:01 [8] = assay: as above; conditions: source organism: Mycobacterium tuberculosis
HLA-A*69:01 = assay: as above; conditions: source organism: Mycobacterium tuberculosis
HLA-B*83:01 = assay: IEDB peptide-MHC binding, purified MHC/competitive/fluorescence; filed as Kd, often an IC50 or EC50 that approximates it; ≥ and ≤ were set here for values at or beyond the usual limits of such assays
HLA-A*26:03 = assay: as above; conditions: source organism: Mycobacterium tuberculosis C
HLA-B*15:42 = assay: as above
HLA-A*02:06 = assay: as above; conditions: source organism: Mycobacterium tuberculosis C
HLA-B*45:06 = assay: as above
HLA-B*27:05 [9] = assay: as above; conditions: source organism: Mycobacterium tuberculosis C
HLA-B*15:01 [10] = assay: as above; conditions: source organism: Mycobacterium tuberculosis C
HLA-B*27:05 [11] = assay: IEDB peptide-MHC binding, purified MHC/direct/fluorescence; filed as Kd, often an IC50 or EC50 that approximates it; ≥ and ≤ were set here for values at or beyond the usual limits of such assays; conditions: source organism: Mycobacterium tuberculosis
HLA-B*15:01 [12] = assay: as above; conditions: source organism: Mycobacterium tuberculosis
HLA-A*02:01 [13] = assay: as above; conditions: source organism: Mycobacterium tuberculosis
HLA-A*24:03 = assay: as above; conditions: source organism: Entamoeba histolytica HM-1:IMSS
HLA-C*04:01 = assay: IEDB peptide-MHC binding, purified MHC/competitive/fluorescence; filed as Kd, often an IC50 or EC50 that approximates it; ≥ and ≤ were set here for values at or beyond the usual limits of such assays; conditions: source organism: Entamoeba histolytica
HLA-C*14:02 = assay: as above; conditions: source organism: Entamoeba histolytica
HLA-A*24:02 [14] = assay: as above; conditions: source organism: Entamoeba histolytica
HLA-C*06:02 = assay: as above; conditions: source organism: Entamoeba histolytica
HLA-A*32:07 = assay: as above; conditions: source organism: Entamoeba histolytica
HLA-A*32:15 = assay: as above; conditions: source organism: Entamoeba histolytica
HLA-B*53:01 = assay: IEDB peptide-MHC binding, purified MHC/competitive/fluorescence; ≥ and ≤ were set here for values at or beyond the usual limits of such assays; conditions: source organism: Homo sapiens
HLA-A*31:01 [15] = assay: as above; conditions: source organism: Homo sapiens
HLA-B*37:01 = assay: as above; conditions: source organism: Homo sapiens
HLA-A*24:02 [16] = assay: as above; conditions: source organism: Homo sapiens
HLA-A*25:01 = assay: as above; conditions: source organism: Homo sapiens
HLA-B*07:02 [17] = assay: as above; conditions: source organism: Homo sapiens
HLA-B*51:01 = assay: as above; conditions: source organism: Homo sapiens
HLA-B*58:01 [18] = assay: as above; conditions: source organism: Homo sapiens
HLA-A*03:01 = assay: as above; conditions: source organism: Homo sapiens
HLA-B*18:01 [19] = assay: as above; conditions: source organism: Homo sapiens
HLA-B*14:02 = assay: as above; conditions: source organism: Homo sapiens
HLA-A*01:01 [20] = assay: as above; conditions: source organism: Homo sapiens
HLA-A*29:02 = assay: as above; conditions: source organism: Homo sapiens
HLA-A*68:02 [21] = assay: as above; conditions: source organism: Homo sapiens
HLA-B*44:03 = assay: as above; conditions: source organism: Homo sapiens
HLA-B*08:01 [22] = assay: as above; conditions: source organism: Homo sapiens
HLA-B*35:01 = assay: as above; conditions: source organism: Homo sapiens
HLA-A*02:01 [23] = assay: as above; conditions: source organism: Homo sapiens
HLA-A*11:01 [24] = assay: as above; conditions: source organism: Homo sapiens
HLA-B*40:02 = assay: as above; conditions: source organism: Homo sapiens
[25] = source organism: Mycobacterium tuberculosis C
[26] = source organism: Entamoeba histolytica

Sequence: ALFDRPAFK
Kd (HLA-B*57:01): ≥ 20 µM
Kd (HLA-B*08:02): ≥ 20 µM
Kd (HLA-A*31:01 [1]): 4.7 nM
Kd (HLA-B*46:01): ≥ 20 µM
Kd (HLA-B*07:02 [2]): ≥ 20 µM
Kd (HLA-B*48:01): ≥ 20 µM
Kd (HLA-B*58:01 [3]): ≥ 20 µM
Kd (HLA-B*08:03): ≥ 20 µM
Kd (HLA-B*18:01 [4]): ≥ 20 µM
Kd (HLA-A*01:01 [5]): ≥ 20 µM
Kd (HLA-A*68:02 [6]): ≥ 20 µM
Kd (HLA-B*40:01): ≥ 20 µM
Kd (HLA-B*08:01 [7]): ≥ 20 µM
Kd (HLA-B*15:17): ≥ 20 µM
Kd (HLA-A*26:02): ≥ 20 µM
Kd (HLA-A*11:01 [8]): 24 nM
Kd (HLA-A*69:01): ≥ 20 µM
Kd (HLA-B*83:01; [25]): ≥ 5 µM
Kd (HLA-A*26:03): ≥ 20 µM
Kd (HLA-B*15:42; [25]): ≥ 5 µM
Kd (HLA-A*02:06): 325 nM
Kd (HLA-B*45:06; [25]): ≥ 5 µM
Kd (HLA-B*27:05 [9]): ≥ 20 µM
Kd (HLA-B*15:01 [10]): ≥ 20 µM

Sequence: QINELHHSK
Kd (HLA-B*57:01): ≥ 20 µM
Kd (HLA-A*31:01 [1]): 335 nM
Kd (HLA-B*46:01): ≥ 20 µM
Kd (HLA-B*07:02 [2]): ≥ 20 µM
Kd (HLA-B*48:01): ≥ 20 µM
Kd (HLA-B*58:01 [3]): ≥ 20 µM
Kd (HLA-B*18:01 [4]): ≥ 20 µM
Kd (HLA-A*01:01 [5]): ≥ 20 µM
Kd (HLA-A*68:02 [6]): ≥ 20 µM
Kd (HLA-B*40:01): ≥ 20 µM
Kd (HLA-B*27:05 [11]): ≥ 20 µM
Kd (HLA-B*15:17): ≥ 20 µM
Kd (HLA-B*15:01 [12]): ≥ 20 µM
Kd (HLA-A*02:01 [13]): ≥ 20 µM
Kd (HLA-A*11:01 [8]): 68.5 nM
Kd (HLA-A*26:03): ≥ 20 µM

Sequence: SYMSTFPLF
Kd (HLA-A*24:03): ≤ 1 nM
Kd (HLA-C*04:01): 88.3 nM
Kd (HLA-C*14:02): ≤ 0.1 nM
Kd (HLA-A*24:02 [14]): ≤ 0.1 nM
Kd (HLA-B*83:01; [26]): ≥ 5 µM
Kd (HLA-C*06:02): 613 nM
Kd (HLA-B*15:42; [26]): ≥ 5 µM
Kd (HLA-A*32:07): 0.5 nM
Kd (HLA-B*45:06; [26]): ≥ 5 µM
Kd (HLA-A*32:15): 784 nM

IC50 (HLA-B*53:01): ≥ 20 µM
IC50 (HLA-A*31:01 [15]): ≥ 20 µM
IC50 (HLA-B*37:01): ≥ 20 µM
IC50 (HLA-A*24:02 [16]): ≥ 20 µM
IC50 (HLA-A*25:01): ≥ 20 µM
IC50 (HLA-B*07:02 [17]): 1460 nM
IC50 (HLA-B*51:01): ≥ 20 µM
IC50 (HLA-B*58:01 [18]): ≥ 20 µM
IC50 (HLA-A*03:01): ≥ 20 µM
IC50 (HLA-B*18:01 [19]): 296 nM
IC50 (HLA-B*14:02): ≥ 20 µM
IC50 (HLA-A*01:01 [20]): ≥ 20 µM
IC50 (HLA-A*29:02): ≥ 20 µM
IC50 (HLA-A*68:02 [21]): 317 nM
IC50 (HLA-B*44:03): ≥ 20 µM
IC50 (HLA-B*08:01 [22]): ≥ 20 µM
IC50 (HLA-B*35:01): 736 nM
IC50 (HLA-A*02:01 [23]): 4.97 µM
IC50 (HLA-A*11:01 [24]): ≥ 20 µM
IC50 (HLA-B*40:02): 540 nM
Sequence: YPDPVIKV
